Target: T1, GFP-AtCNIH5 (genomic AtCNIH5pro: GFP-AtCNIH5 in cnih5) (Arabidopsis thaliana, UniProt Q9SZ74 1-135)
T1 sequence (looked up): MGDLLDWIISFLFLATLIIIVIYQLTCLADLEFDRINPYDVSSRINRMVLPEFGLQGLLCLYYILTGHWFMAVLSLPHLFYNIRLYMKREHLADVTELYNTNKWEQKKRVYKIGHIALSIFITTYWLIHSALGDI
Test: co-IP

- fold co-immunoprecipitated against the free GFP control: ~40 times
B1: endogenous AtPHF1 (natural protein, UniProt Q8GYE0 1-398, looked up)
chain: MEIEEASRESGHVVCGSWIRRPKKVNWVLIAKASKRRGSSVSSPALLNIFSFDPITASLSSSPLATHTLKDSDGDPVAVSVHPGGDYFVCSTSKGGCKLFELVGGATGITILAKELLPLQNAGLQKCMAFSFDGSKLAVGGVDGCLRIMEWPNLSVILDEPKAHKSIRDMDFSLDSEFLATTSTDGSARIWKAEDGFPLSTLERSGDENIELCRFSKDGTKPFLFCAAQRGDTPMVNVYDISTWKKLGFKKLSRKTASTMAVSLDGKYIALGGKDGDVSVAEVKTMEIYHYSKRLHLGQSIASLEFCPSERVMLTTSSEWGEMVTKLTVPKEWKEWQIYALLFCLFMASVIAAYVFFENSDSFWKLPMGKDQKRPKISLFGGSSSTPSEDHSRWNLDL

— doi:10.1101/2024.06.20.599911 (bioRxiv, 2024)
